Drawing on PMC6555819, “Comprehensive study of nuclear receptor DNA binding provides a revised framework for understanding receptor specificity”, this text covers binding signal for 28 molecules.

To fix the notation:
B1: NRC3_random_hg19_369_o1 (dsDNA)
DNA 1: GCCAACCCTCTTTCATGTCTGTAAGGAGCTTACCTGGCGATTGACAGCGTAGAATGAAGG
DNA 2: CCTTCATTCTACGCTGTCAATCGCCAGGTAAGCTCCTTACAGACATGAAAGAGGGTTGGC
B2: NRC3_wobSeed134_DR5_T8G_o1 (dsDNA)
DNA 1: GCGCTGCGAGGTCAACTGATGGTCAGCTAAAGCTCGGCGATTGACAGCGTAGAATGAAGG
DNA 2: CCTTCATTCTACGCTGTCAATCGCCGAGCTTTAGCTGACCATCAGTTGACCTCGCAGCGC
B3: NRC3_wobSeed2_DR0_C4T_o1 (dsDNA)
DNA 1: GCCTTAGTTGGTCAAGGTCACACACGCTATAGGTACGCGATTGACAGCGTAGAATGAAGG
DNA 2: CCTTCATTCTACGCTGTCAATCGCGTACCTATAGCGTGTGTGACCTTGACCAACTAAGGC
B4: NRC3_wobSeed3_DR0_G21C_o1 (dsDNA)
DNA 1: GCGCTCGGAGGACAAGGTCACAGCTTTGTCCGTAGAGCGATTGACAGCGTAGAATGAAGG
DNA 2: CCTTCATTCTACGCTGTCAATCGCTCTACGGACAAAGCTGTGACCTTGTCCTCCGAGCGC
B5: NRC3_wobSeed100_DR4_C12G_o1 (dsDNA)
DNA 1: GCCCTACTGGGGCACGAAAGGTCATTGATTCAGTGAGCGATTGACAGCGTAGAATGAAGG
DNA 2: CCTTCATTCTACGCTGTCAATCGCTCACTGAATCAATGACCTTTCGTGCCCCAGTAGGGC
B6: NRC3_wobSeed100_DR4_C13G_o1 (dsDNA)
DNA 1: GCCCTACTGGGCGACGAAAGGTCATTGATTCAGTGAGCGATTGACAGCGTAGAATGAAGG
DNA 2: CCTTCATTCTACGCTGTCAATCGCTCACTGAATCAATGACCTTTCGTCGCCCAGTAGGGC
B7: NRC3_wobSeed100_DR4_C15T_o1 (dsDNA)
DNA 1: GCCCTACTGGGCCATGAAAGGTCATTGATTCAGTGAGCGATTGACAGCGTAGAATGAAGG
DNA 2: CCTTCATTCTACGCTGTCAATCGCTCACTGAATCAATGACCTTTCATGGCCCAGTAGGGC
B8: NRC3_wobSeed93_DR3_T26A_o1 (dsDNA)
DNA 1: GCAGTCAAAGTTCATCTAGGTAACGAAAGATATGCTGCGATTGACAGCGTAGAATGAAGG
DNA 2: CCTTCATTCTACGCTGTCAATCGCAGCATATCTTTCGTTACCTAGATGAACTTTGACTGC
B9: NRC3_wobSeed46_DR1_G13T_o1 (dsDNA)
DNA 1: GCTTACCAAGGTTAAAGGTCGTTGATGCACGCCTTGGCGATTGACAGCGTAGAATGAAGG
DNA 2: CCTTCATTCTACGCTGTCAATCGCCAAGGCGTGCATCAACGACCTTTAACCTTGGTAAGC
B10: NRC3_wobSeed122_DR5_G10T_o1 (dsDNA)
DNA 1: GCGCTAGTTTGTCAGTAAAAGGTCACACACCGGTCGGCGATTGACAGCGTAGAATGAAGG
DNA 2: CCTTCATTCTACGCTGTCAATCGCCGACCGGTGTGTGACCTTTTACTGACAAACTAGCGC
B11: NRC3_wobSeed122_DR5_C4A_o1 (dsDNA)
DNA 1: GCGATAGTTGGTCAGTAAAAGGTCACACACCGGTCGGCGATTGACAGCGTAGAATGAAGG
DNA 2: CCTTCATTCTACGCTGTCAATCGCCGACCGGTGTGTGACCTTTTACTGACCAACTATCGC
B12: NRC3_wobSeed74_DR3_C15T_o1 (dsDNA)
DNA 1: GCTCTAGTTGGTCATGGAGGTCACACACGACGGGTAGCGATTGACAGCGTAGAATGAAGG
DNA 2: CCTTCATTCTACGCTGTCAATCGCTACCCGTCGTGTGTGACCTCCATGACCAACTAGAGC
B13: NRC3_wobSeed21_DR0_G17C_o1 (dsDNA)
DNA 1: GCCGTCAAAGTTCAAGCTAACGTAACAGAAAGCAGCGCGATTGACAGCGTAGAATGAAGG
DNA 2: CCTTCATTCTACGCTGTCAATCGCGCTGCTTTCTGTTACGTTAGCTTGAACTTTGACGGC
B14: NRC3_wobSeed44_DR1_T13C_o1 (dsDNA)
DNA 1: GCTGAATGAGGTCAAAGATCAGGGAACGTGGCGTCGGCGATTGACAGCGTAGAATGAAGG
DNA 2: CCTTCATTCTACGCTGTCAATCGCCGACGCCACGTTCCCTGATCTTTGACCTCATTCAGC
B15: NRC3_wobSeed97_DR4_T28C_o1 (dsDNA)
DNA 1: GCCAAACTAGGTCACGAAAGGTCAAAGCCGAATGACGCGATTGACAGCGTAGAATGAAGG
DNA 2: CCTTCATTCTACGCTGTCAATCGCGTCATTCGGCTTTGACCTTTCGTGACCTAGTTTGGC
B16: NRC3_wobSeed97_DR4_T22G_o1 (dsDNA)
DNA 1: GCCAAACTAGGTCACGAAAGGGCAAAGTCGAATGACGCGATTGACAGCGTAGAATGAAGG
DNA 2: CCTTCATTCTACGCTGTCAATCGCGTCATTCGACTTTGCCCTTTCGTGACCTAGTTTGGC
B17: NRC3_wobSeed88_DR3_C7A_o1 (dsDNA)
DNA 1: GCTAGCATAGGTCATGCGGGCCAGTATAGTGTCGGCGCGATTGACAGCGTAGAATGAAGG
DNA 2: CCTTCATTCTACGCTGTCAATCGCGCCGACACTATACTGGCCCGCATGACCTATGCTAGC
B18: NRC3_wobSeed34_DR1_A15C_o1 (dsDNA)
DNA 1: GCATCGAAAGGTCGCAGGTGAGTATACCCACCCGAAGCGATTGACAGCGTAGAATGAAGG
DNA 2: CCTTCATTCTACGCTGTCAATCGCTTCGGGTGGGTATACTCACCTGCGACCTTTCGATGC
B19: NRC3_wobSeed34_DR1_G6T_o1 (dsDNA)
DNA 1: GCATCTAAAGGTCGAAGGTGAGTATACCCACCCGAAGCGATTGACAGCGTAGAATGAAGG
DNA 2: CCTTCATTCTACGCTGTCAATCGCTTCGGGTGGGTATACTCACCTTCGACCTTTAGATGC
B20: NRC3_wobSeed133_DR5_T23C_o1 (dsDNA)
DNA 1: GCCGTCCAAGGTCAATGCTAGGCCAGTGAAAGCATTGCGATTGACAGCGTAGAATGAAGG
DNA 2: CCTTCATTCTACGCTGTCAATCGCAATGCTTTCACTGGCCTAGCATTGACCTTGGACGGC
B21: NRC3_wobSeed18_DR0_G16T_o1 (dsDNA)
DNA 1: GCGATACAGGGTCAATGCCAGAGTACGCGTATTGATGCGATTGACAGCGTAGAATGAAGG
DNA 2: CCTTCATTCTACGCTGTCAATCGCATCAATACGCGTACTCTGGCATTGACCCTGTATCGC
B22: NRC3_wobSeed5_DR0_A20G_o1 (dsDNA)
DNA 1: GCCCTTACGGGTCAAGGTTGTAGCACGGGTGGTACGGCGATTGACAGCGTAGAATGAAGG
DNA 2: CCTTCATTCTACGCTGTCAATCGCCGTACCACCCGTGCTACAACCTTGACCCGTAAGGGC
B23: NRC3_wobSeed29_DR1_T22C_o1 (dsDNA)
DNA 1: GCGCTTACGGGTCAAAGGTTACAGCATGAATAGAATGCGATTGACAGCGTAGAATGAAGG
DNA 2: CCTTCATTCTACGCTGTCAATCGCATTCTATTCATGCTGTAACCTTTGACCCGTAAGCGC
B24: NRC3_wobSeed109_DR4_G25T_o1 (dsDNA)
DNA 1: GCCGTCCAAGGTCATAGGAGGTCATTGAAGACAGATGCGATTGACAGCGTAGAATGAAGG
DNA 2: CCTTCATTCTACGCTGTCAATCGCATCTGTCTTCAATGACCTCCTATGACCTTGGACGGC
B25: NRC3_wobSeed73_DR3_G26C_o1 (dsDNA)
DNA 1: GCCAAACTAGGTCACAGAGGTCAAACTCCGTGCGTAGCGATTGACAGCGTAGAATGAAGG
DNA 2: CCTTCATTCTACGCTGTCAATCGCTACGCACGGAGTTTGACCTCTGTGACCTAGTTTGGC
B26: NRC3_wobSeed73_DR3_C22T_o1 (dsDNA)
DNA 1: GCCAAACTAGGTCACAGAGGTTAAAGTCCGTGCGTAGCGATTGACAGCGTAGAATGAAGG
DNA 2: CCTTCATTCTACGCTGTCAATCGCTACGCACGGACTTTAACCTCTGTGACCTAGTTTGGC
B27: NRC3_wobSeed49_DR2_C7G_o1 (dsDNA)
DNA 1: GCCAAAGTAGGTCAAGAGGTCAAAGTCCGCTTCCCGGCGATTGACAGCGTAGAATGAAGG
DNA 2: CCTTCATTCTACGCTGTCAATCGCCGGGAAGCGGACTTTGACCTCTTGACCTACTTTGGC
B28: NRC3_wobSeed26_DR1_T8C_o1 (dsDNA)
DNA 1: GCTCTAGCTGGTCAAAGGTCACACACTCGAAATGCGGCGATTGACAGCGTAGAATGAAGG
DNA 2: CCTTCATTCTACGCTGTCAATCGCCGCATTTCGAGTGTGTGACCTTTGACCAGCTAGAGC

Sequence of RXRa (P19793 whole entry): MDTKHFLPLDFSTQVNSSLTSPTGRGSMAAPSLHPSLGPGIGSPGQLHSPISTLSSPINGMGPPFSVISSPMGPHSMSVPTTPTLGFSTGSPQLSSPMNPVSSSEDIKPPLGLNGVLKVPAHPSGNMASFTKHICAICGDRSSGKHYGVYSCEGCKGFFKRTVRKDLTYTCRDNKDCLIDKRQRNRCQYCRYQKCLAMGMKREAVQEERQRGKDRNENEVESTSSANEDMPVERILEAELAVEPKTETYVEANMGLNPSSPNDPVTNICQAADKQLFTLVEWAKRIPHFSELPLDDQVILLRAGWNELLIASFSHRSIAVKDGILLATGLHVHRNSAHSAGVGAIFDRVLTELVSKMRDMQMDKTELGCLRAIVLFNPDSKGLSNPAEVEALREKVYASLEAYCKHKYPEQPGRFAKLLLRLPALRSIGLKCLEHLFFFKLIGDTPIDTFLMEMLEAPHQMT
Sequence of FXR:RXRa (Q96RI1 whole entry, chain 1 of 2): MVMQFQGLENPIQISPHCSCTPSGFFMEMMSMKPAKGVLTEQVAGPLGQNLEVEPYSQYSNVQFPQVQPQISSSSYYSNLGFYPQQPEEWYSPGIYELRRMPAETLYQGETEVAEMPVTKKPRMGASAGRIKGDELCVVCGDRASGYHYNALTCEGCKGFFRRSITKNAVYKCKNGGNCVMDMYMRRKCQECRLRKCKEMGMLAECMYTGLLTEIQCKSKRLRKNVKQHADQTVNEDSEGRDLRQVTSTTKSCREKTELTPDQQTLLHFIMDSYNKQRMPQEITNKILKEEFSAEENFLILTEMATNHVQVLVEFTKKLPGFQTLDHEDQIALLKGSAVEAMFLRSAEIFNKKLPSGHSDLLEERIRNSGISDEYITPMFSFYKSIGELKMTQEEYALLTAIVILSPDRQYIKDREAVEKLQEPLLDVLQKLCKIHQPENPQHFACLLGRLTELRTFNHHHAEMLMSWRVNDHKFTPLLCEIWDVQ
Sequence of FXR:RXRa (P19793 whole entry, chain 2 of 2): as the sequence (P19793 whole entry) above
Sequence of RARb:RXRa (P10826 whole entry, chain 1 of 2): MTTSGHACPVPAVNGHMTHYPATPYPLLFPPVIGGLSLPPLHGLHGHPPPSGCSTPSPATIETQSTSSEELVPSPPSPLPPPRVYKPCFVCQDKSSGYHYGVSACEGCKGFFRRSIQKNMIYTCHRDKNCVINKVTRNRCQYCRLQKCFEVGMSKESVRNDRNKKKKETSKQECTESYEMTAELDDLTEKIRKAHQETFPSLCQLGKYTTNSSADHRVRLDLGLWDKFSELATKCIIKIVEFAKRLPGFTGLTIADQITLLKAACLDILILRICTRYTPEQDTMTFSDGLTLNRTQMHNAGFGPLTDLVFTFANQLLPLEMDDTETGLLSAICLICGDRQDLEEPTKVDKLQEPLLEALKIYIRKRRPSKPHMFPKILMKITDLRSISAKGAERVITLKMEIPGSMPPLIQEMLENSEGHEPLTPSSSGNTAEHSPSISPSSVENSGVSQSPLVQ
Sequence of RARb:RXRa (P19793 whole entry, chain 2 of 2): as the sequence (P19793 whole entry) above
Sequence of RARg:RXRa (P13631 whole entry, chain 1 of 2): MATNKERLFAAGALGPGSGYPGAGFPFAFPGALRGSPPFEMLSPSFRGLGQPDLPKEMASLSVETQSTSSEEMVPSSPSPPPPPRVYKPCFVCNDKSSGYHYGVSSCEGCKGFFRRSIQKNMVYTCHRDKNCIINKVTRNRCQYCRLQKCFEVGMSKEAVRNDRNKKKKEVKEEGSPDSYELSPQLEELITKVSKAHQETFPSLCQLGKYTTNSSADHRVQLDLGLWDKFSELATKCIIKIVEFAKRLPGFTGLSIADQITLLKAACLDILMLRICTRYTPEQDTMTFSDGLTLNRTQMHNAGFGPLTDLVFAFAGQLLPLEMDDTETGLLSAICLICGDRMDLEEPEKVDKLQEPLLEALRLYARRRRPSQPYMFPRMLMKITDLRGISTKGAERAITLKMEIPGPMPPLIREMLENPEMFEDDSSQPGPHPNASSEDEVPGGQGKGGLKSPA
Sequence of RARg:RXRa (P19793 whole entry, chain 2 of 2): as the sequence (P19793 whole entry) above

One data set concerns the target RARb:RXRa (Homo sapiens, UniProt P10826;P19793 full;full). In words: no ligand; PBM; 270 nM : 90 nM RXRa; PBS pH 7.4, 2% milk, 0.02% Triton X-100, 1 mM DTT, BSA, 0.4 mg/ml salmon testes DNA. To be noted: tags: His kept;His cleaved; copies: 1;1; label: surface-attached array probe. An outline of the steps:
(§1)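 Each nuclear receptor dimer, without ligand, was incubated for 1 h on custom Agilent 4×180K protein-binding microarrays. Binding was detected with antibodies against each partner (one per run), and scanned fluorescence was regression-normalized. The binding z-scores are referenced to random human genomic background probes.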
Regarding B1, the binding signal was 0.12 PBM z-score against 500 random probes. On to B2, for which the binding signal is 5.49 PBM z-score against 500 random probes.

In a further data set the target is RARg:RXRa (Homo sapiens, UniProt P13631;P19793 full;full). The data set is described as above. The note with it: tags: His kept;His cleaved; copies: 1;1; label: surface-attached array probe. The method, boiled down:
as §1
As to B1, the binding signal is -0.32 PBM z-score against 500 random probes. On the same count and under the same terms, as for B2, the figure is 7.43 PBM z-score against 500 random probes.

For the next data set, the target named is FXR:RXRa (Homo sapiens, UniProt Q96RI1;P19793 full;full). The data set is described as above. To be noted: tags: His kept;His cleaved; copies: 1;1; label: surface-attached array probe. The method, boiled down:
as §1
On to B1, for which the binding signal was 0.38 PBM z-score against 500 random probes. On to B2, for which the binding signal was 7.7 PBM z-score against 500 random probes.

Another data set concerns the target RXRa (Homo sapiens, UniProt P19793). In words: no ligand; PBM; 180 nM; PBS pH 7.4, 2% milk, 0.02% Triton X-100, 1 mM DTT, BSA, 0.4 mg/ml salmon testes DNA. The note with it: tags: His cleaved; chain copies: 2; label: surface-attached array probe.
For the molecule B3, the binding signal is 5.06 PBM z-score against 500 random probes. For the molecule B4, the binding signal is 4.86 PBM z-score against 500 random probes.

Take B5: the binding signal was 5.1 PBM z-score against 500 random probes. Same read-out and setting: as for B6, the figure is 4.57 PBM z-score against 500 random probes; as for B7, 4.52 PBM z-score against 500 random probes; as for B8, 5.16 PBM z-score against 500 random probes. As to B9, the binding signal was 7.99 PBM z-score against 500 random probes. B10: the binding signal was 5.24 PBM z-score against 500 random probes. As for B11, the binding signal is 4.99 PBM z-score against 500 random probes. Same read-out and setting: for B12 the value was 5.28 PBM z-score against 500 random probes. Same read-out and setting: for B13 the value was 4.62 PBM z-score against 500 random probes; for B14, 7.98 PBM z-score against 500 random probes.

As for B15, the binding signal is 8.92 PBM z-score against 500 random probes. The same measure, in the same setting: for B16 the value was 4.76 PBM z-score against 500 random probes; for B17, 4.81 PBM z-score against 500 random probes; for B18, 5.33 PBM z-score against 500 random probes. Still for that read-out and setting: as for B19, the figure is 4.9 PBM z-score against 500 random probes; as for B20, 4.95 PBM z-score against 500 random probes; as for B21, 4.72 PBM z-score against 500 random probes. Same read-out and setting: as for B22, the figure is 4.67 PBM z-score against 500 random probes; as for B23, 9.84 PBM z-score against 500 random probes. With B24, the binding signal is 7.89 PBM z-score against 500 random probes.

B25: the binding signal was 8.89 PBM z-score against 500 random probes. On the same count and under the same terms, as for B26, the figure is 5.19 PBM z-score against 500 random probes; as for B27, 8.95 PBM z-score against 500 random probes; as for B28, 8.94 PBM z-score against 500 random probes.
